Tests used:
[1] = target: T1, Fibronectin (FN), full-length, isolated from human plasma (human, UniProt P02751-1); test: FN-fiber stretch assay
[2] = target: T1, Fibronectin (FN), full-length, isolated …; test: microplate protein-binding assay
[3] = target: T1, Fibronectin (FN), full-length, isolated …; test: cross-linking

B1: R1R2 peptide (collagen-mimicking peptide derived from the SFS FN-binding protein of Streptococcus equi) (peptide)
peptide: GLNGENQKEPEQGERGEAGPPLSGLSGNNQGRPSLPGLNGENQKEPEQGERGEAGPP
binding result [1]: binds

B2: short human tissue transglutaminase, aa 1-465 (short hrTG2, barrel 1 and 2 deletion mutant) (domain or fragment)
chain: MAEELVLERCDLELETNGRDHHTADLCREKLVVRRGQPFWLTLHFEGRNYEASVDSLTFSVVTGPAPSQEAGTKARFPLRDAVEEGDWTATVVDQQDCTLSLQLTTPANAPIGLYRLSLEASTGYQGSSFVLGHFILLFNAWCPADAVYLDSEEERQEYVLTQQGFIYQGSAKFIKNIPWNFGQFEDGILDICLILLDVNPKFLKNAGRDCSRRSSPVYVGRVVSGMVNCNDDQGVLLGRWDNNYGDGVSPMSWIGSVDILRRWKNHGCQRVKYGQCWVFAAVACTVLRCLGIPTRVVTNYNSAHDQNSNLLIEYFRNEFGEIQGDKSEMIWNFHCWVESWMTRPDLQPGYEGWQALDPTPQEKSEGTYCCGPVPVRAIKEGDLSTKYDAPFVFAEVNADVVDWIQQDDGSVHKSINRSLIVGLKISTKSVGRDEREDITHTYKYPEGSSEEREAFTRANHLNKL
modifications: Alexa Fluor 647 on primary amines
binding result [2]: binds

B3: short human TG2 (aa 1-465) pre-incubated with the irreversible inhibitor Z006 (domain or fragment)
chain: MAEELVLERCDLELETNGRDHHTADLCREKLVVRRGQPFWLTLHFEGRNYEASVDSLTFSVVTGPAPSQEAGTKARFPLRDAVEEGDWTATVVDQQDCTLSLQLTTPANAPIGLYRLSLEASTGYQGSSFVLGHFILLFNAWCPADAVYLDSEEERQEYVLTQQGFIYQGSAKFIKNIPWNFGQFEDGILDICLILLDVNPKFLKNAGRDCSRRSSPVYVGRVVSGMVNCNDDQGVLLGRWDNNYGDGVSPMSWIGSVDILRRWKNHGCQRVKYGQCWVFAAVACTVLRCLGIPTRVVTNYNSAHDQNSNLLIEYFRNEFGEIQGDKSEMIWNFHCWVESWMTRPDLQPGYEGWQALDPTPQEKSEGTYCCGPVPVRAIKEGDLSTKYDAPFVFAEVNADVVDWIQQDDGSVHKSINRSLIVGLKISTKSVGRDEREDITHTYKYPEGSSEEREAFTRANHLNKL
binding result [2]: binds

B4: human tissue transglutaminase (hrTG2, recombinantly produced in E.coli) (enzyme)
chain: MAEELVLERCDLELETNGRDHHTADLCREKLVVRRGQPFWLTLHFEGRNYEASVDSLTFSVVTGPAPSQEAGTKARFPLRDAVEEGDWTATVVDQQDCTLSLQLTTPANAPIGLYRLSLEASTGYQGSSFVLGHFILLFNAWCPADAVYLDSEEERQEYVLTQQGFIYQGSAKFIKNIPWNFGQFEDGILDICLILLDVNPKFLKNAGRDCSRRSSPVYVGRVVSGMVNCNDDQGVLLGRWDNNYGDGVSPMSWIGSVDILRRWKNHGCQRVKYGQCWVFAAVACTVLRCLGIPTRVVTNYNSAHDQNSNLLIEYFRNEFGEIQGDKSEMIWNFHCWVESWMTRPDLQPGYEGWQALDPTPQEKSEGTYCCGPVPVRAIKEGDLSTKYDAPFVFAEVNADVVDWIQQDDGSVHKSINRSLIVGLKISTKSVGRDEREDITHTYKYPEGSSEEREAFTRANHLNKLAEKEETGMAMRIRVGQSMNMGSDFDVFAHITNNTAEEYVCRLLLCARTVSYNGILGPECGTKYLLNLNLEPFSEKSVPLCILYEKYRDCLTESNLIKVRALLVEPVINSYLLAERDLYLENPEIKIRILGEPKQKRKLVAEVSLQNPLPVALEGCTFTVEGAGLTEEQKTVEIPDPVEAGEEVKVRMDLLPLHMGLHKLVVNFESDKLKAVKGFRNVIIGPA
modifications: Alexa Fluor 647 on primary amines (fiber stretch assay)
binding result [3]: binds

— publication doi:10.1101/2023.08.14.553221 (bioRxiv, 2023)
